Patent US20240383984A1 (Genentech, published 2024)

T1: cynomolgus FcRH5 protein fragment (soluble) (cynomolgus monkey)
T1 construct: whole entry named; also called Cyno FcRH5 (BIACORE analyte)
T1 chain: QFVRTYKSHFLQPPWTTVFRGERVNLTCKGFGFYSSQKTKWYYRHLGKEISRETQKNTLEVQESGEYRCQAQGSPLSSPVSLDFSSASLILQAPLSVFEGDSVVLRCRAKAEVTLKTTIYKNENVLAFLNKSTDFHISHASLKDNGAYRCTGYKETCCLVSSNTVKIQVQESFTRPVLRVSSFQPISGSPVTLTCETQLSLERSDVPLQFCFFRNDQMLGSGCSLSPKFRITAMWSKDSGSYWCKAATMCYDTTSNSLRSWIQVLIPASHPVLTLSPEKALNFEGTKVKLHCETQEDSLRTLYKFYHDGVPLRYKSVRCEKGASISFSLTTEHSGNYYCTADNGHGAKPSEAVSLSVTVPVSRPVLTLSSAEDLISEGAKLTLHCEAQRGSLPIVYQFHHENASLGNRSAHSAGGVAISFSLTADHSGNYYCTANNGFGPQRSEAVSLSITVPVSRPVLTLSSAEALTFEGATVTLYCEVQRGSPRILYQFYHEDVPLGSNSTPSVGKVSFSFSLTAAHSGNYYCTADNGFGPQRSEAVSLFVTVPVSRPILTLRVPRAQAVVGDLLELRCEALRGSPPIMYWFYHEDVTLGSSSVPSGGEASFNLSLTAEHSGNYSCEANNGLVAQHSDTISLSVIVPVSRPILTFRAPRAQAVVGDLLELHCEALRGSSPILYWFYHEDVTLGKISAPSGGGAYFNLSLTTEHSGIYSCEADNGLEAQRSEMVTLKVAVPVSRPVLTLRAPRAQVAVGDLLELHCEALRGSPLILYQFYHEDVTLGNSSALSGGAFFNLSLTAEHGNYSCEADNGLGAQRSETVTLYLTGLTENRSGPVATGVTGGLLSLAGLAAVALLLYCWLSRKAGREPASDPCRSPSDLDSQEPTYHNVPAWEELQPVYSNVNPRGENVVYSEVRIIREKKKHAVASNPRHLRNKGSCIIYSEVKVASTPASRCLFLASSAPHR

T2: human FcRH1 (full-length, on SVT2 cells) (human, UniProt Q96LA6 17-429)
T2 construct: whole, on cells; also called SVT2-FcRH1
T2 sequence (looked up): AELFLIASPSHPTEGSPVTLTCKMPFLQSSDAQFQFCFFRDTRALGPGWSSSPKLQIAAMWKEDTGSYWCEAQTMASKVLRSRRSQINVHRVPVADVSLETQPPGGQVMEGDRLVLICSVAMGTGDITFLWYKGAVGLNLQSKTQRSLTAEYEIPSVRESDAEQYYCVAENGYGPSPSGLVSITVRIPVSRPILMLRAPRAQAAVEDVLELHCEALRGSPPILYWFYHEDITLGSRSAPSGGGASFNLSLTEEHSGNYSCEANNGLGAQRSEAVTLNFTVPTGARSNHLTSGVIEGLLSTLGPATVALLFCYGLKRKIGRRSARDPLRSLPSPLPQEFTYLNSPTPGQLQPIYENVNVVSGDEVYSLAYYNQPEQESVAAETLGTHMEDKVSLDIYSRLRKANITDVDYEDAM

T3: human FcRH4 (full-length, on SVT2 cells) (human, UniProt Q96PJ5 20-515)
T3 construct: whole, on cells; also called SVT2-FcRH4
T3 sequence (looked up): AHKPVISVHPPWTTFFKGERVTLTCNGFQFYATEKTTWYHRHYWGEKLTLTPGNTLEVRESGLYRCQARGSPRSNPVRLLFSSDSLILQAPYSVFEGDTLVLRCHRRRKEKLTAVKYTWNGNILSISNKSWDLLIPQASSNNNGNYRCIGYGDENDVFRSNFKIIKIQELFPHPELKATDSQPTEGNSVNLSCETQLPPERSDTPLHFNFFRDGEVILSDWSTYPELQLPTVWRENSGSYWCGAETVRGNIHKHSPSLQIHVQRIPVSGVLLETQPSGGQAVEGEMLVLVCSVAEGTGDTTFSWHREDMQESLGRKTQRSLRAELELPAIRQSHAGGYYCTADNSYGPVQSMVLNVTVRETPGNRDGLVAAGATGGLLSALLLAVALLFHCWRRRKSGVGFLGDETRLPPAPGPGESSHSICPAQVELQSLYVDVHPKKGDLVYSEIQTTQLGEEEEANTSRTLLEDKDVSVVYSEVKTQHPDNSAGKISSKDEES


Key:
[1] = molecular target: T1, cynomolgus FcRH5 protein fragment …; test: SPR (BIACORE), TDB captured as ligand, Cyno FcRH5 as analyte, 25 °C, 1:1 binding model
[2] = molecular target: T2, human FcRH1 (full-length, on SVT2 cells); test: flow cytometry on SVT2-FcRH1 cells, PE-labelled secondary
Method: (§1) Human FcRH5, cyno FcRH5, human FcRH1, FcRH2, FcRH3, and FcRH4 transfected mouse SVT2 cells were used to test binding and cross-reactivity of FcRH5 TDBs. The method was carried out as follows. Cultured SVT2 cells were lifted using non-enzyme cell dissociation buffer (Sigma, #C5914). 1×10⁵ cells were suspended in 100 μL and incubated with FcRH5 TDBs at 3 μg/ml. […] Cells were washed twice with FACS buffer before flow cytometry analysis was carried out on a FACSCalibur.

[3] = molecular target: T1, cynomolgus FcRH5 protein fragment …; test: SPR (BIACORE), Cyno FcRH5, 1:1 binding model
[4] = molecular target: T3, human FcRH4 (full-length, on SVT2 cells); test: flow cytometry on SVT2-FcRH4 cells, PE-labelled secondary
Method: as §1

| Kd [1] [nM] | koff [1] [s⁻¹] | kon [1] [M⁻¹ s⁻¹] | binding result [2] | Kd [3] [nM] | koff [3] [s⁻¹] | kon [3] [M⁻¹ s⁻¹] | binding result [4] | Binder |
| --- | --- | --- | --- | --- | --- | --- | --- | --- |
| 6.27 | 0.000847 | 135000 |  |  |  |  |  | hu1G7.v1.4/38E4.v1 TDB (bispecific antibody, V domains shown, knob-into-hole TDB; also called 1G7.v1.4 TDB; 1G7.v1.4 (TDB format)) VH 1: EVQLVESGPGLVKPSETLSLTCTVSGFSLTRFGVHWVRQPPGKGLEWLGVIWRGGSTDYNAAFMSRLTISKDNSKNQVSLKLSSVTAADTAVYYCSNHYYGSSDYALDNWGQGTLVTVSS VL 1: DIQMTQSPSSLSASVGDRVTITCKASQDVRNLVVWFQQKPGKAPKLLIYSGSYRYSGVPSRFSGSGSGTDFTLTISSLQPEDFATYYCQQHYSPPYTFGQGTKVEIK VH 2: EVQLVQSGAEVKKPGASVKVSCKASGFTFTSYYIHWVRQAPGQGLEWIGWIYPENDNTKYNEKFKDRVTITADTSTSTAYLELSSLRSEDTAVYYCARDGYSRYYFDYWGQGTLVTVSS VL 2: DIVMTQSPDSLAVSLGERATINCKSSQSLLNSRTRKNYLAWYQQKPGQSPKLLIYWTSTRKSGVPDRFSGSGSGTDFTLTISSLQAEDVAVYYCKQSFILRTFGQGTKVEIK |
|  |  |  | no binding | 7.82 | 0.000455 | 58200 | no binding | 1G7.v85/38E4.v1 TDB (bispecific antibody, V domains shown, knob-into-hole TDB; also called 1G7.v85 TDB; 1G7.v85 (TDB format)) VH 1: EVQLVESGPGLVKPSETLSLTCTVSGFSLTRFGVHWVRQPPGKGLEWLGVIWRGGSTDYNAAFVSRLTISKDNSKNQVSLKLSSVTAADTAVYYCSNHYYGSSDYALDNWGQGTLVTVSS VL 1: DIQMTQSPSSLSASVGDRVTITCKASQDVRNLVVWFQQKPGKAPKLLIYSGSYRYSGVPSRFSGSGSGTDFTLTISSLQPEDFATYYCQQHYSPPYTFGQGTKVEIK VH 2: EVQLVQSGAEVKKPGASVKVSCKASGFTFTSYYIHWVRQAPGQGLEWIGWIYPENDNTKYNEKFKDRVTITADTSTSTAYLELSSLRSEDTAVYYCARDGYSRYYFDYWGQGTLVTVSS VL 2: DIVMTQSPDSLAVSLGERATINCKSSQSLLNSRTRKNYLAWYQQKPGQSPKLLIYWTSTRKSGVPDRFSGSGSGTDFTLTISSLQAEDVAVYYCKQSFILRTFGQGTKVEIK |
